Measurements reported in US7740850B2, “PDGFRβ-specific antibodies” (ImClone, LLC, priority 2007, dated 2010).

T1: m5β (Mus musculus, UniProt P05622)
T1 sequence (P05622 32-531 limits assumed): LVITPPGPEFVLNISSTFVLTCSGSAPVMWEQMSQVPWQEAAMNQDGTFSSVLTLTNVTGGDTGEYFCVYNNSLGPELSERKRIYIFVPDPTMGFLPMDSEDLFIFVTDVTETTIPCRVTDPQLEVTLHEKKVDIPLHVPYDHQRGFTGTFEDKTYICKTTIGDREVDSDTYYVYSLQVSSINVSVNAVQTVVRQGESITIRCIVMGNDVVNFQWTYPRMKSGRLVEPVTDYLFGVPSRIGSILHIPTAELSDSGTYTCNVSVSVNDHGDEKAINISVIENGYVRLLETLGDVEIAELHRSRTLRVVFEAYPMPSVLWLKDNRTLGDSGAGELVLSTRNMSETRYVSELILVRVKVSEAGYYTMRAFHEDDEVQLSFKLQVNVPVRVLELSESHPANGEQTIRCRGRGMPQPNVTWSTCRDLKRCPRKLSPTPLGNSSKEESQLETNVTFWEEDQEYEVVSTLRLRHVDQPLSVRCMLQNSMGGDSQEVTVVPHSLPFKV

B1: 1B3: human anti-mouse PDGFRβ antibody from Fab phage display library, human κ/γ1 constant regions; SEQ ID NOS in Table 1 (antibody, listed as Homo sapiens, V domains shown)
VH: QVQLQESGGGLVKPGGSLRLSCAASGFTFSSYSMNWVRQAPGKGLEWVSSISSSSSYIYYADSVKGRFTISRDNSKNTLYLQMNSLRAEDTAVYYCAKGGRPLLVFDFWGQGTLVTVS
VL: EIVMTQSPGTLSLSPGERATLSCRASQSVSSSYLAWYQQKPGQAPRLLIYDASKRATGIPARFSGSGSGTDFTLTISTLESEDSAVYYCQQRGYWPPITFGQGTRLEIKR
modifications: human kappa/gamma1 constant regions
B2: 2C5: PDGFRβ-specific human antibody binding both human and murine PDGFRβ; SEQ ID NOS in Table 1 (antibody, listed as Homo sapiens, V domains shown)
VH: QVQLVQSGAEVKKPGSSVKVSCKASGGTFSSYAISWVRQAPGQGLEWMGRIIPILGIANYAQKFQGRVTITADKSTSTAYMELSSLRSEDTAVYYCARDMGSRNYYYFYWGQGTLVTVSS
VL: EIVLTQSPATLSLSPGERATLSCRASQSVGRYLAWYQQKPGQAPRLLIYGASNRATGIPARFSGSGSGTDFTLTISSLEPEDFAVYYCQQRSNWPLTFGGGTKVEIK

Legend:
[1] = test system: human xenograft tumors; assay: Human tumor xenograft models in athymic nude mice (statements over several models); assay type: in vivo; details: all six xenograft models, i.p. up to 60 mg/kg
Method: Antitumor activity of anti-mPDGFRβ antibody in tumor xenograft models. Six human xenograft tumor models, including three ovarian carcinoma (SK-OV-3, OV-CAR-5 and OV-CAR-8), one pancreatic carcinoma (BxPC3), one lung carcinoma (NCI-H460), and one kidney carcinoma (Caki-1), were used to assess the antitumor activity of 1B3 in vivo. Athymic (nu/nu) mice (female, 7-8 weeks of age) were housed for 7-10 days before xenograft implantation. Each mouse was injected subcutaneously with 3-10×10^6 cells of SK-OV-3, OVCAR-5, OVCAR-8, Caki-1, BxPC3 or NCI-H460 tumor cells. When tumors reached approximately 250-300 mm^3, mice were randomized into groups of 10 to 12 animals each and treated by intraperitoneal injection, 2 to 3 times per week, with 1B3, DC101, or 1B3 in combination with DC101. Human IgG and/or USP saline were used as control groups. Tumor sizes and mouse body weight were measured twice a week. Tumor volume was calculated using the formula: π/6×(length×width^2), where length=longest diameter and width=diameter perpendicular to length. The ratio of average tumor volume in the treatment group versus that in the control group (T/C %) was calculated. Statistic analysis was performed by Student's t-test.
The xenograft cell lines were BxPC-3, MIA-PaCa-2, Detroit-562, HCT-8, NCI-H460, NCI-H292, and HCT-116. […] (FIG. 10 and Table 3). […]

[2] = test system: WS-1 cells; assay: PDGF-BB-stimulated cell migration, two-chamber technique; assay type: cell-based; details: antibody 30 μg/ml, PDGF-BB 100 ng/ml, 4 hours
Method: (§1) 2C5 inhibits PDGF-BB-stimulated cell migration in a cell-based migration assay. Two-chamber technique was used to determine the inhibitory ability of 2C5 in cell migration with NCI-H460, OVCAR8, WS-1 and U-118 cell lines. Collagen (100 μg/ml) was added to the up chamber (100 μl) and the lower chamber (150 μl) and incubated at 37° C. for 1 hour. After washing the chambers twice with PBS, 100 μl of starved cells (estimated 0.5-10×10^6/ml in serum-free medium) were added to the up chamber and 150 μl of serum-free medium was added to the lower chamber and then incubated at 37° C. for 4 hours. […] In 2C5 wells, 2C5 were added into the up chamber at a final concentration of 30 μg/ml. Non-migrated cells in the up chamber were scraped from the membrane. After washing three times with PBS, migrated cells on the membrane of the lower chamber side were fixed with 4% formalin and stained with Hoechst (4 μg/ml). The results were captured and cells were counted under fluorescence microscopy.

[3] = test system: U-118 cells; assay: as above; assay type: cell-based; details: antibody 30 μg/ml, PDGF-BB 100 ng/ml, 4 hours
Method: as §1

[4] = target: T1, m5β; assay: Epitope mapping; assay type: binding; details: ✓ / X, key not given
Method: 2C5 binds to domain 1 (D1) and domain 2 (D2) of PDGFRβ. Various chimeric constructs of PDGFRβ and PDGFRα were first made by domain swapping, starting from N-terminus to C-terminus with PDGFRβ domain(s) replacing PDGFRα domain(s). The PDGFRβ/α chimera were tested for the ability of 2C5 binding. Shorter versions of PDGFRβ, including D1D2, D2D3 and D1D2D3, were then made to confirm the 2C5 binding domains on PDGFRβ.

[5] = test system: Akt and p44/42 MAP kinase in Caki-1 cells; assay: PDGF-BB-stimulated downstream signaling (Western blot); assay type: cell-based, human
Method: To study the downstream signaling, the cell lysate from the above treatment were resolved by a 4-12% NuPAGE Bis-Tris gel. Phosphorylated Akt and p44/42 mitogen-activated protein kinase (MAPK) were detected using an anti-phospho-Akt and an anti-phospho-p44/p42 MAPK and p44/p42 MAPK, respectively (eBioscience, San Diego, Calif.).
2C5 inhibits PDGF-BB-stimulated receptor phosphorylation and downstream signaling in a cell-based assay. The ability of 2C5 to block PDGFRβ phosphorylation was determined for human Caki-1 tumor cells (FIG. 7) and mouse NIH/3T3 and D122 cells lines (FIG. 8).

| Molecule | overt toxicity, including changes in body weight and animal behavior [1] | inhibition of PDGF-BB-stimulated cell migration [2] | inhibition of PDGF-BB-stimulated cell migration [3] | binding to m5β [4] | inhibition of PDGF-BB-stimulated phosphorylation of Akt and p44/42 MAP kinase [5] |
| --- | --- | --- | --- | --- | --- |
| B1 | did not cause any overt toxicity |  |  |  |  |
| B2 |  | inhibited PDGF-BB-stimulated cell migration completely | inhibited PDGF-BB-stimulated cell migration completely | ✓ | potently inhibited |
